According to the supplement of paper PMC9112550, “Optimization of the antimicrobial peptide Bac7 by deep mutational scanning” (BMC Biology, 2022):

System: Escherichia coli TOP10
Experiment: shrunken log2 fold change of peptide-encoding DNA abundance (4.5 h post-induction vs induction); higher = less antimicrobial activity (less host growth inhibition)
Settings: time post-induction: 4.5 h; library: site-saturation at positions 5, 18, 19, 20
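Further: peptides expressed intracellularly from a pBAD plasmid library in pooled LB shake-flask culture, induced with 0.3% L-arabinose, DNA abundance read by NGS, three biological replicates, DESeq2 with apeglm shrinkage.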

Q: How did the “shrunken log2 fold change” value turn out when RRIRRRPPRLPRPRPRPTCRPRP was run?
A: Its value is 0.41.

Q: RRIRRRPPRLPRPRPRPGIMPRP was tested. Which “shrunken log2 fold change” value did it give?
A: The value was 0.156.

Q: How did the “shrunken log2 fold change” value turn out when RRIRARPPRLPRPRPRPFVNPRP was run?
A: The value was 0.164.

Q: Which “shrunken log2 fold change” value does the source give for RRIRSRPPRLPRPRPRPKCQPRP here?
A: The value was 0.607.

Q: With RRIRGRPPRLPRPRPRPRRRPRP as the sequence, how does the “shrunken log2 fold change” value read?
A: Its value is 1.02.

Q: With RRIRKRPPRLPRPRPRPFWDPRP as the sequence, how does the “shrunken log2 fold change” value read?
A: The value was -0.0842.

Q: Which “shrunken log2 fold change” value does the source give for RRIRPRPPRLPRPRPRPNVWPRP here?
A: The value was 0.183.

Q: For RRIRTRPPRLPRPRPRPIPCPRP, which “shrunken log2 fold change” value is on record?
A: The value was -0.0839.

Q: How did the “shrunken log2 fold change” value turn out when RRIRSRPPRLPRPRPRPVPPPRP was run?
A: The value was 0.329.

Q: With RRIRMRPPRLPRPRPRPAWPPRP as the sequence, how does the “shrunken log2 fold change” value read?
A: The value was 0.896.

Q: Which “shrunken log2 fold change” value does the source give for RRIRWRPPRLPRPRPRPAEQPRP here?
A: Its value is -0.00651.

Q: Which “shrunken log2 fold change” value does the source give for RRIRPRPPRLPRPRPRPSDLPRP here?
A: Its value is -0.385.

Q: RRIRTRPPRLPRPRPRPEKIPRP was tested. Which “shrunken log2 fold change” value did it give?
A: The value was 0.0436.

Q: Which “shrunken log2 fold change” value does the source give for RRIRTRPPRLPRPRPRPAYTPRP here?
A: Its value is -0.149.

Q: With RRIRMRPPRLPRPRPRPNAQPRP as the sequence, how does the “shrunken log2 fold change” value read?
A: The value was 0.43.

Q: Which “shrunken log2 fold change” value does the source give for RRIRFRPPRLPRPRPRPRHPPRP here?
A: Its value is 0.0568.

Q: How did the “shrunken log2 fold change” value turn out when RRIRMRPPRLPRPRPRPHKWPRP was run?
A: Its value is 0.216.

Q: How did the “shrunken log2 fold change” value turn out when RRIRVRPPRLPRPRPRPCPQPRP was run?
A: The value was -0.0828.

Q: With RRIRDRPPRLPRPRPRPGRLPRP as the sequence, how does the “shrunken log2 fold change” value read?
A: The value was 0.0513.

Q: How did the “shrunken log2 fold change” value turn out when RRIRDRPPRLPRPRPRPLRSPRP was run?
A: The value was 0.294.

Q: With RRIRERPPRLPRPRPRPQQKPRP as the sequence, how does the “shrunken log2 fold change” value read?
A: Its value is -0.157.

Q: With RRIRNRPPRLPRPRPRPMTDPRP as the sequence, how does the “shrunken log2 fold change” value read?
A: Its value is -0.088.

Q: How did the “shrunken log2 fold change” value turn out when RRIRKRPPRLPRPRPRPDLNPRP was run?
A: Its value is 0.332.

Q: For RRIRYRPPRLPRPRPRPWNRPRP, which “shrunken log2 fold change” value is on record?
A: The value was -0.0135.

Q: How did the “shrunken log2 fold change” value turn out when RRIRYRPPRLPRPRPRPAMDPRP was run?
A: The value was -0.256.

Q: With RRIRSRPPRLPRPRPRPWLHPRP as the sequence, how does the “shrunken log2 fold change” value read?
A: The value was -0.254.

Q: How did the “shrunken log2 fold change” value turn out when RRIRCRPPRLPRPRPRPVILPRP was run?
A: The value was -0.799.

Q: RRIRERPPRLPRPRPRPTLRPRP was tested. Which “shrunken log2 fold change” value did it give?
A: The value was 0.383.

Q: Which “shrunken log2 fold change” value does the source give for RRIRERPPRLPRPRPRPMPHPRP here?
A: The value was -0.083.

Q: For RRIRTRPPRLPRPRPRPFVEPRP, which “shrunken log2 fold change” value is on record?
A: The value was -0.284.

Q: Which “shrunken log2 fold change” value does the source give for RRIRQRPPRLPRPRPRPSSAPRP here?
A: The value was 2.99.

Q: RRIRNRPPRLPRPRPRPKMDPRP was tested. Which “shrunken log2 fold change” value did it give?
A: The value was 0.0178.

Q: With RRIRLRPPRLPRPRPRPLAPPRP as the sequence, how does the “shrunken log2 fold change” value read?
A: The value was 0.274.

Q: With RRIRPRPPRLPRPRPRPQHFPRP as the sequence, how does the “shrunken log2 fold change” value read?
A: The value was -0.297.

Q: RRIRWRPPRLPRPRPRPRQAPRP was tested. Which “shrunken log2 fold change” value did it give?
A: Its value is 0.475.

Q: How did the “shrunken log2 fold change” value turn out when RRIRGRPPRLPRPRPRPCIGPRP was run?
A: Its value is -0.143.

Q: For RRIRFRPPRLPRPRPRPLVQPRP, which “shrunken log2 fold change” value is on record?
A: The value was -0.052.

Q: Which “shrunken log2 fold change” value does the source give for RRIRNRPPRLPRPRPRPPDMPRP here?
A: The value was 0.0955.

Q: How did the “shrunken log2 fold change” value turn out when RRIRPRPPRLPRPRPRPWEPPRP was run?
A: The value was 0.0548.

Q: Which “shrunken log2 fold change” value does the source give for RRIRCRPPRLPRPRPRPNDGPRP here?
A: The value was -0.00783.

Q: How did the “shrunken log2 fold change” value turn out when RRIRSRPPRLPRPRPRPNGWPRP was run?
A: Its value is 0.623.

Q: How did the “shrunken log2 fold change” value turn out when RRIRRRPPRLPRPRPRPRVKPRP was run?
A: The value was 0.699.

Q: How did the “shrunken log2 fold change” value turn out when RRIRFRPPRLPRPRPRPVCTPRP was run?
A: Its value is -0.324.

Q: With RRIRVRPPRLPRPRPRPCNYPRP as the sequence, how does the “shrunken log2 fold change” value read?
A: Its value is -0.119.

Q: For RRIRGRPPRLPRPRPRPDWSPRP, which “shrunken log2 fold change” value is on record?
A: Its value is 0.203.

Q: RRIRPRPPRLPRPRPRPMPGPRP was tested. Which “shrunken log2 fold change” value did it give?
A: The value was -0.0627.

Q: With RRIRNRPPRLPRPRPRPYRHPRP as the sequence, how does the “shrunken log2 fold change” value read?
A: Its value is -0.01.

Q: RRIRIRPPRLPRPRPRPQRYPRP was tested. Which “shrunken log2 fold change” value did it give?
A: The value was 0.159.

Q: How did the “shrunken log2 fold change” value turn out when RRIRERPPRLPRPRPRPHISPRP was run?
A: Its value is -0.3.

Q: How did the “shrunken log2 fold change” value turn out when RRIRVRPPRLPRPRPRPIPCPRP was run?
A: Its value is -0.0881.

Q: For RRIRPRPPRLPRPRPRPQDCPRP, which “shrunken log2 fold change” value is on record?
A: Its value is 0.104.

Q: For RRIRRRPPRLPRPRPRPGGHPRP, which “shrunken log2 fold change” value is on record?
A: Its value is 0.499.

Q: With RRIRVRPPRLPRPRPRPLMEPRP as the sequence, how does the “shrunken log2 fold change” value read?
A: Its value is -0.21.

Q: RRIRHRPPRLPRPRPRPNGGPRP was tested. Which “shrunken log2 fold change” value did it give?
A: Its value is -0.147.

Q: Which “shrunken log2 fold change” value does the source give for RRIRRRPPRLPRPRPRPGIDPRP here?
A: Its value is -0.0704.

Q: RRIRVRPPRLPRPRPRPDSDPRP was tested. Which “shrunken log2 fold change” value did it give?
A: Its value is -0.0912.

Q: Which “shrunken log2 fold change” value does the source give for RRIRCRPPRLPRPRPRPCMFPRP here?
A: Its value is -0.625.

Q: RRIRLRPPRLPRPRPRPCSSPRP was tested. Which “shrunken log2 fold change” value did it give?
A: Its value is -0.157.

Q: Which “shrunken log2 fold change” value does the source give for RRIRERPPRLPRPRPRPCNTPRP here?
A: The value was -0.118.

Q: For RRIRSRPPRLPRPRPRPYKHPRP, which “shrunken log2 fold change” value is on record?
A: Its value is -0.734.

Q: RRIRARPPRLPRPRPRPWYSPRP was tested. Which “shrunken log2 fold change” value did it give?
A: Its value is -0.43.

Q: How did the “shrunken log2 fold change” value turn out when RRIRVRPPRLPRPRPRPIVSPRP was run?
A: The value was -0.187.

Q: RRIRERPPRLPRPRPRPTMAPRP was tested. Which “shrunken log2 fold change” value did it give?
A: The value was 0.00526.

Q: RRIRGRPPRLPRPRPRPLQDPRP was tested. Which “shrunken log2 fold change” value did it give?
A: The value was 0.98.

Q: How did the “shrunken log2 fold change” value turn out when RRIRMRPPRLPRPRPRPHDNPRP was run?
A: The value was 0.0232.

Q: Which “shrunken log2 fold change” value does the source give for RRIRFRPPRLPRPRPRPNIEPRP here?
A: Its value is -0.288.

Q: RRIRKRPPRLPRPRPRPGQPPRP was tested. Which “shrunken log2 fold change” value did it give?
A: Its value is 0.0678.

Q: How did the “shrunken log2 fold change” value turn out when RRIRCRPPRLPRPRPRPFAHPRP was run?
A: The value was -0.355.

Q: How did the “shrunken log2 fold change” value turn out when RRIRMRPPRLPRPRPRPEHNPRP was run?
A: Its value is 0.465.

Q: RRIRWRPPRLPRPRPRPQEFPRP was tested. Which “shrunken log2 fold change” value did it give?
A: The value was 0.00161.

Q: How did the “shrunken log2 fold change” value turn out when RRIRFRPPRLPRPRPRPFNAPRP was run?
A: The value was -0.415.

Q: For RRIRQRPPRLPRPRPRPHMHPRP, which “shrunken log2 fold change” value is on record?
A: The value was -0.39.

Q: RRIRFRPPRLPRPRPRPPSIPRP was tested. Which “shrunken log2 fold change” value did it give?
A: The value was -0.0341.

Q: How did the “shrunken log2 fold change” value turn out when RRIRNRPPRLPRPRPRPLSSPRP was run?
A: The value was -0.0989.

Q: RRIRYRPPRLPRPRPRPLYNPRP was tested. Which “shrunken log2 fold change” value did it give?
A: The value was -1.11.
